We go through four compounds from patent publication US11998620B2, “PSMA targeted compounds and uses thereof” (CASE WESTERN RESERVE UNIVERSITY, priority 2021, dated 2024).

Numbered stars: 1 amine (or outer) side, 2 acyl side, 3 side chain; on linkers, the order of the positions; unused ones are H or OH. Square brackets hold non-standard residues; d marks the D form. Peptide text beside a SMILES is read from it. * marks the point of attachment. DOTA = O=C(O)CN1CCN(CC(=O)O)CCN(CC(=O)*)CCN(CC(=O)O)CC1; γGlu = O=C(O)[CH](CCC(=O)[*:2])N[*:1]; X3 = O=C(C1CCC(CN[*:1])CC1)[*:2]; CO = O=C([*:1])[*:2]; Ahx = NCCCCCC(=O)O

Series [1] relates to PSMA-expressing cancer tissue. As to the kind of experiment: Standard uptake values (SUVs) by PET and blood clearance, general statements. Conditions: PET. The class given is in vivo. The protocol: The term “standardized uptake value (SUV)” refers to a measure of radioactivity in a specific area of interest relative to an idealized even distribution of radioactive material throughout the body. SUV is used historically by nuclear medicine professionals to distinguish between “normal” and “abnormal” levels of uptake. Preferably, uptake is measured by positron emission tomography (PET) imaging or other imaging modalities.
The PSMA targeted compounds described herein include a PSMA ligand, e.g., PSMA-1, conjugated to a metal chelating agent or chelated metal nuclide. The PSMA targeted compounds described herein can selectively recognize PSMA-expressing tumors, cancer cells, and/or cancer neovasculature in vivo and be used to deliver at least one chelated metal nuclide, such as radionuclide, to the PSMA-expressing tumors, cancer cells, and/or cancer neovasculature to treat and/or detect the PSMA-expressing tumors, cancer cells, and/or cancer neovasculature in a subject. The PSMA ligand can target and/or increase the uptake of the metal chelating agent or chelated metal nuclide in PSMA expressing cancer cells compared to untargeted metal chelated agents or chelated metal nuclides administered to a subject and decrease non-PSMA target toxicity of the metal nuclide administered (e.g., systemically) to a subject.

Series [2] is described as follows: Storage stability (lyophilized powder; frozen in saline). The class given is physicochemical. The protocol: (§1) PSMA-1-DOTA was incubated in 100% mouse Plasma, PBS, or 100% human plasma at 37° C. […] And stability has been monitored and confirmed for at least 7 days frozen in isotonic sterile saline.
Series [3] in a line: In vivo PET imaging in healthy animals without tumor. Also noted: species or system mice. The protocol:
We compared the [^68Ga]-PSMA-11 and the [^68Ga]-PSMA-1-DOTA ligand in healthy animals without tumor. Equal doses of radioactivity were injected into the same animal (a single animal was used to limit variability). We injected the [^68Ga]-PSMA-1-DOTA first to prevent blockade of its binding by the other ligand, waited 24 hours and then injected the other radiolabeled ligand.

The target in the next series is T1, PSMA (Homo sapiens, UniProt Q04609).
T1 construct: expressed in transfected cells; host or cells: PC3pip cells
T1 sequence (Q04609 whole entry): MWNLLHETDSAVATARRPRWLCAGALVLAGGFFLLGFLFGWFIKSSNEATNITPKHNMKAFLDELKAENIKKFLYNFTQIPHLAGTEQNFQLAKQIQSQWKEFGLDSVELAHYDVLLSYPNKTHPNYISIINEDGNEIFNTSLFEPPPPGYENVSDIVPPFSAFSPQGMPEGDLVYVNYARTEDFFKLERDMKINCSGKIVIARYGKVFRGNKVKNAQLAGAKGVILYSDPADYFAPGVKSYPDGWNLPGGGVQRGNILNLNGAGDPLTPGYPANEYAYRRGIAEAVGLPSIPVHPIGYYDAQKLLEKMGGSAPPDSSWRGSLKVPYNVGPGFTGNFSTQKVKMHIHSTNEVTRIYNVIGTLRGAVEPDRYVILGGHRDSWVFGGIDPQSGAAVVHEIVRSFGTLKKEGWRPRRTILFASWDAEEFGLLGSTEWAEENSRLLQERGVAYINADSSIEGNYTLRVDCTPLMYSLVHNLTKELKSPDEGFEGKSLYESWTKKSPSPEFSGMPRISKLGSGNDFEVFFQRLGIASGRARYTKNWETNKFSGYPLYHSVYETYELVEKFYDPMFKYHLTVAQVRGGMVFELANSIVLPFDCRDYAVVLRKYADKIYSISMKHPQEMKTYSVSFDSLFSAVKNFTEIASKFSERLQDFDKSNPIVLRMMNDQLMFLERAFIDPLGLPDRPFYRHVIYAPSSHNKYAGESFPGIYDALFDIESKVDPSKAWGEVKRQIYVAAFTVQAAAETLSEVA
As to the kind of experiment: Competition binding assay using [3H]-ZJ24 with PC3pip cells. Conditions: approximately, compared to PSMA-11, PSMA I&T and ZJ24 ligands, FIG. 3. The source says:
We first conjugated a macrocyclic DOTA to our PSMA-1 ligand enabling us to label it with [^68Ga]. We then compared the macrocyclic-conjugated PSMA-1 ligand to PSMA-11 ligand, PSMA I&T ligand, and ZJ24 ligand in a competitive radio-binding assay using [^3H]-ZJ24 with PC3pip cells. FIG. 3 illustrates that the PSMA-1 ligand conjugated to DOTA, the PSMA-1 ligand has approximately 4-5 fold higher affinity for PSMA.

The nature of series [4]: Stability assay: incubation in plasma or PBS, HPLC. The class given is in vitro ADME. Conditions: 100% mouse plasma, PBS or 100% human plasma at 37° C., for 7 days. Here is the method: as §1
Series [5] deals with PC3pip tumors that overexpress PSMA. Nature of the series: In vivo PET imaging in animals harboring PC3pip tumors. The source says:
We also made a similar comparison using animals harboring PC3pip tumors that overexpress PSMA.

[6] abbreviates: PC3pip tumor bearing animals, PET.

Regarding `NC(=O)C(CCCCNC(=O)CN1CCN(CC(=O)O)CCN(CC(=O)O)CCN(CC(=O)O)CC1)NC(=O)C(Cc1ccc(O)cc1)NC(=O)C(CCC(=O)O)NC(=O)C(CCC(=O)O)NC(=O)C(CCC(=O)O)NC(=O)CCCCCNC(=O)CCC(NC(=O)NC(CCC(=O)O)C(=O)O)C(=O)O` (stereo not shown) [JB-1498] ({Glu-CO-γGlu-Ahx}-EEEYK(DOTA)-NH2; configuration not given here), the “SUVs in salivary glands, lacrimal glands and non-PSMA expressing muscle tissue versus SUVs in PSMA-expressing cancer” value in series [1] is “substantially lower SUVs”.

Regarding `NC(=O)C(CCCCNC(=O)CN1CCN(CC(=O)O)CCN(CC(=O)O)CCN(CC(=O)O)CC1)NC(=O)C(CCC(=O)O)NC(=O)C(CCC(=O)O)NC(=O)C(CCC(=O)O)NC(=O)CCCCCNC(=O)C1CCC(CNC(=O)CCC(NC(=O)NC(CCC(=O)O)C(=O)O)C(=O)O)CC1` (stereo not shown) [PSMA-1-DOTA] ({Glu-CO-γGlu}-[X3][Ahx]EEEK(DOTA)-NH2; configuration not given here), the “stability frozen in isotonic sterile saline” value in series [2] (frozen) is “at least 7 days”. For the same compound, in series [2] (long term storage), the “stability as a lyophilized powder” value is reported as “stability for long term storage”. Further, in series [3] (mouse, in vivo), the renal clearance entry is on record as “faster renal clearance” and the “renal retention of the probe” value was “less renal retention”. The “higher affinity for PSMA” value on PSMA is 4-5 fold. Also, the “SUVs in salivary glands, lacrimal glands and non-PSMA expressing muscle tissue versus SUVs in PSMA-expressing cancer” value in series [1] is “substantially lower SUVs”. For the same compound, the “degradation/purity by HPLC” value in series [4] is recorded as “No decline in the product”.

Regarding `NC(=O)[C@H](CCCCNC(=O)CN1CCN(CC(=O)O)CCN(CC(=O)O)CCN(CC(=O)O)CC1)NC(=O)[C@@H](CCC(=O)O)NC(=O)[C@@H](CCC(=O)O)NC(=O)[C@@H](CCC(=O)O)NC(=O)CCCCCNC(=O)C1CCC(CNC(=O)CC[C@H](NC(=O)N[C@@H](CCC(=O)O)C(=O)O)C(=O)O)CC1` (stereo partly shown) [[^68Ga]-PSMA-1-DOTA, metal not drawn] ({Glu-CO-γGlu}-[X3][Ahx][dE][dE][dE]K(DOTA)-NH2), in series [5] (mouse, in vivo), the kidney uptake entry was “less kidney uptake” and the “uptake into salivary glands” value is “no uptake”. The “uptake in the salivary glands” value in series [3] (mouse, in vivo) was “none”.

Turning to `O=C([O-])CN(CCN(CC(=O)[O-])Cc1cc(CCC(=O)NCCCCCC(=O)NCCCC[C@H](NC(=O)N[C@@H](CCC(=O)O)C(=O)O)C(=O)O)ccc1[O-])Cc1cc(CCC(=O)O)ccc1[O-].[68Ga+3].[OH3+]` [[^68Ga]-PSMA-11], in series [5] (setting [6]), the kidney uptake result was “significant uptake”, the “uptake in the PC3pip tumor” value was “significant uptake”, the “uptake into lacrimal glands” value is reported as “significant uptake” and the “uptake into salivary glands” value is reported as “significant uptake”. In addition, in series [3] (healthy animals without tumor, equal doses of radioactivity, PET), the “uptake in the salivary glands” value is “significant uptake”.
